The data set concerns MS2 coat protein. Nature of the data set: apparent KD of MS2 coat protein; designed switch direction (-1 OFF switch, 1 ON switch): -1; higher = weaker reporter binding. The method in brief: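 Designed RNA switches sharing common flanks were transcribed on Illumina chips by stalled E. coli RNA polymerase. They were titrated with SNAP-549-labelled MS2 coat protein, from 0.7 or 1.5 nM doubling to 3 µM, in Tris-HCl pH 7.5 buffer with KCl, MgCl2, BSA, DTT, tRNA and Tween-20. Titrations ran without input, with 200 uM small-molecule ligand, or with an oligonucleotide input. The apparent KD of each design is the median over its clusters, after curve-fitting of normalised cluster fluorescence.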

[1] abbreviates: input ligand: microRNA oligo, concentration not stated.
Where [2] appears, read: Eterna round: R95, input ligand: FMN 200 uM.
The mark [3] stands for this setting: Eterna round: R95, input ligand: microRNA oligo, concentration not stated.
The mark [4] stands for this setting: Eterna round: R95, input ligand: none.

For the sequence “CUAAAUCAUGUAGGAUAUGCGUGGCGAAGCUAUGCAGAAGGACAUGAGGAUCACCCAUGUGCUUCCGUCUGCGUACAGACGGAA [JL ENG1 1.17] (Eterna round: R96, puzzle: Exclusion NG 1)”, the “apparent KD of MS2 coat protein” value amounted to 328 nM (input ligand: FMN 200 uM), 222 nM under setting [1] and 255 nM (input ligand: none).
For the sequence “CUAACAUGCUGGUGAUCAUACAUGAGGAUCACCCAUGUAACAAGCUUUUUGUUCGUCUUAAUUUAAUUGAUUACUAG [Stov1/8-B3] (Eterna round: R97, puzzle: Sensor, turn-off variant 1)”, the “apparent KD of MS2 coat protein” value is, setting by setting: (input ligand: FMN 200 uM) 177 nM; (input ligand: none) 254 nM.
Take “CUAAUACAUCAGGAUAUGAUAGCCUAUAGCAUAUCAGAAGGGAUGACAUGAGGAUCACCCAUGUCAAAGGGUGA [eternacac ex6r4 sub19] (Eterna round: R97, puzzle: Exclusion 6)”: the “apparent KD of MS2 coat protein” value is, setting by setting: (input ligand: FMN 200 uM) 396 nM; (input ligand: none) 444 nM.
With “CUAGAUCUUCGGAUCUAGUACAUGAGGAUCACCCAUGUGACGAGUUACAUGAAAAACAAGCUUUUUGCUCGUCUUAU [Sensor v3 - Turn-off variant 1 - 8] (puzzle: Sensor v3, turn-off variant 1)”, the “apparent KD of MS2 coat protein” value runs as follows: under setting [2], 41.6 nM; under setting [3], 102 nM; under setting [4], 46.6 nM.
On to “CUAGCGAAUGUAGGAUAUCGGACUGUUUCAGUCUGAGAAGGACAUGAGGAUCACCCAUGUAUAGCUACGUGAGUAGCUCGCUAG [JL ENG1 3.91] (Eterna round: R96, puzzle: Exclusion NG 1)”, for which the “apparent KD of MS2 coat protein” value by setting is: (input ligand: FMN 200 uM) 43.6 nM; under setting [1], 13 nM; (input ligand: none) 17.1 nM.
For the sequence “CUAGUCCGAGGAUAUAUAUUGUGAAACAUGAGGAUCACCCAUGUUAUAAUAUGGAAAUAAAUAGAAGGCGGACUAG [Mat - Exclusion 5 - JL mod - D57] (puzzle: Exclusion 5)”, the “apparent KD of MS2 coat protein” value was found to be 23.3 nM under setting [2], 38.5 nM under setting [3] and 18.8 nM under setting [4].
The corresponding values for “CUAGUCCGAGGAUAUAUUAUGUGAAACAUGAGGAUCACCCAUGUUAUAUGAUGGAUGAAAAUAGAAGGCGGACUAG [Mat - Exclusion 5 - JL mod - D61] (puzzle: Exclusion 5)” are 20.4 nM, 72.8 nM and 88.1 nM.
As for “CUAGUCCGAGGAUAUAUUAUGUGAUACAUGAGGAUCACCCAUGUUAUAUGAUGGAUGUUAAUAGAAGGCGGACUAG [Mat - Exclusion 5 - JL mod - D72] (puzzle: Exclusion 5)”, the “apparent KD of MS2 coat protein” value by setting is: under setting [2], 246 nM; under setting [3], 118 nM; under setting [4], 110 nM.
Regarding “CUAUAGUAUGUAGGAUAUCGGUCAGUUUCUGAUCGAGAAGGACAUGAGGAUCACCCAUGUAAGGCUACCGGUUUCUGGUGGCCG [JL ENG1 3.54] (Eterna round: R96, puzzle: Exclusion NG 1)”, the “apparent KD of MS2 coat protein” value runs as follows: (input ligand: FMN 200 uM) 61.6 nM; under setting [1], 18.5 nM; (input ligand: none) 23.6 nM.
With “CUAUUCCGAGGAUAUACAUGAGGAUCACCCAUGUCGGGCCUCCGCGUUUAGCGCCUCAGUAGAAGGCGGGUUUC [JL Riri mod 2] (puzzle: Exclusion 3)”, the “apparent KD of MS2 coat protein” value under setting [3] turned out to be 17.2 nM.
As to “CUCAGUGGUGAGGAUAUGCGCGCCCAAUGGACGGUAGAAGGUACUACAUGAGGAUCACCCAUGUAGCGAAGAUU [Eternabot (L1) Solution 49] (Eterna round: R97, puzzle: Exclusion 6)”, the “apparent KD of MS2 coat protein” value runs as follows: (input ligand: FMN 200 uM) 15.9 nM; (input ligand: none) 15.8 nM.
In the case of “CUCCGGCCUGUAGGAUAUGGAUCCGAUUAGGAUCCAGAAGGACAUGAGGAUCACCCAUGUACAUGUAAACAGUCAUCACCGGAC [salish99_ExNG1_r04_203] (Eterna round: R96, puzzle: Exclusion NG 1)”, the “apparent KD of MS2 coat protein” value came out at 23.8 nM (input ligand: FMN 200 uM), 15.2 nM under setting [1] and 16.7 nM (input ligand: none).
The corresponding values for “CUCCGGCGUGUAGGAUAUGGUUCCGUUUCGGUUCCAGAAGGACAUGAGGAUCACCCAUGUACCUGUCGUCGGUCGUCACCGGGC [salish99_ExNG1_r04_216] (Eterna round: R96, puzzle: Exclusion NG 1)” are 12.4 nM, 13.2 nM and 16.4 nM.
Regarding “CUCGUGCAGCAAAGCUGUACGAGUACAUGAGGAUCACCCAUGUAGGAUAUGGUACGCUUUGCGUGCUAGAAGGAUAUGUGUAGG [Mat - Exclusion NG 3 - Mod of JL - D86] (Eterna round: R96, puzzle: Exclusion NG 3)”, the “apparent KD of MS2 coat protein” value by setting is: (input ligand: FMN 200 uM) 37.5 nM; under setting [1], 24.1 nM; (input ligand: none) 36.1 nM.
The corresponding values for “CUCGUGCAGCUUUGCUGUACGAGUACAUGAGGAUCACCCAUGUAGGAUAUGGUACGCUUUGCGUGCCAGAAGGACGUGUGUUUG [JL EXNG3 1.40] (Eterna round: R96, puzzle: Exclusion NG 3)” are 221 nM, 27.6 nM and 39.4 nM.
For “CUCGUGUAAGGAUAUACGAGUCACGGAAAUAAAACGUGAAGGUAGAAGGUACAUGAGGAUCACCCAUGUAAAAC [Mod of Anonveat 2 - Jieux - Exclusion 4] (Eterna round: R97, puzzle: Exclusion 4)”, the “apparent KD of MS2 coat protein” value was 209 nM (input ligand: FMN 200 uM) and 29.8 nM (input ligand: none).
Regarding “CUCUUGGCAGGAUAUGCUCUUUUAGACAUGAGGAUCACCCAUGUGCUCAUUCCUUCUUUUGCAGAAGGGCCUUAAC [JR_E5_Sub048] (puzzle: Exclusion 5)”, the “apparent KD of MS2 coat protein” value under setting [3] is 63.8 nM.
Same read-out and setting: then “CUCUUGUGAGGAUAUCAGGUGUGCUAGCGUACUGGUACAUCUGAGAAGGCACAUGAGGAUCACCCAUGUUUCUU [JL-ex4-3.21 Brourd mod] (puzzle: Exclusion 4)”, with 78.1 nM; and “CUCUUGUUAGGAUAUCAAACCGGCAGCGGAGCCGCCGGAAGUGAGAAGGGACAUGAGGAUCACCCAUGUAAGAA [Quatdior] (puzzle: Exclusion 4)”, with 58.9 nM.
For the sequence “CUGAACCCGGUAGGAUAUAUUGUGGGCAAACAUGGAACAACAUGAGGAUCACCCAUGUAAUUUAGGUAGAAGGGCCAAAAGAUU [Excl-NG2-LRO07] (Eterna round: R96, puzzle: Exclusion NG 2)”, the “apparent KD of MS2 coat protein” value reads like this: (input ligand: FMN 200 uM) 77.9 nM; under setting [1], 50.4 nM; (input ligand: none) 74.2 nM.
With “CUGAGAAUAGGAUAUACUAACAAUGGAGUAGCUUCACGUCAACAUGAGGAUCACCCAUGUAGAAGGGUUAGCGG [Eternabot (L1) Solution 33] (Eterna round: R97, puzzle: Exclusion 2)”, the “apparent KD of MS2 coat protein” value runs as follows: (input ligand: FMN 200 uM) 25 nM; (input ligand: none) 30 nM.
The corresponding values for “CUGAGCAGACGGAGAUCCAACAUGAGGAUCACCCAUGUCUCAAAAGCUUAUUGCUCGUCUUAUCCUCCUCUGUUCAC [Mat - Sensor, turn-off var - Eli Mod - D54] (Eterna round: R97, puzzle: Sensor, turn-off variant 1)” are 26.9 nM and 26.7 nM.
As to “CUGAGCAGACGGAGAUCCAACAUGAGGAUCACCCAUGUCUCAAAAGCUUUUUGCUCGCCUUAUCCUCCUCUGUUCUC [Ererququce] (puzzle: Sensor v3, turn-off variant 1)”, the “apparent KD of MS2 coat protein” value reads like this: under setting [2], 34.8 nM; under setting [3], 208 nM; under setting [4], 36.6 nM.
As for “CUGAGCAGACGGAGAUCCAACAUGAGGAUCACCCAUGUCUCAAAAGCUUUUUGCUUGUCUUACCCUCCUCUGUUCUC [Isceeren] (puzzle: Sensor v3, turn-off variant 1)”, the “apparent KD of MS2 coat protein” value runs as follows: under setting [2], 18.1 nM; under setting [3], 122 nM; under setting [4], 15.7 nM.
On the same counts, the results for “CUGAGCAGACGGAGAUCCAACAUGAGGAUCACCCAUGUCUCAUAAGCUUUUUGCUCAUCUUAUUGUACCUUGGUGCU [JL ViennaUCT Edcesobi mod 3] (puzzle: Sensor v3, turn-off variant 1)” are 275 nM, 14.4 nM and 323 nM.
Take “CUGAGUAGAGGAUAUACAUGAGGAUCACCCAUGUAAAGUAGCUUGCGUACAGGCAGAUGUAGAAGGUUAUUCGG [Mod of JL 13 - Jieux - Exclusion 3] (Eterna round: R97, puzzle: Exclusion 3)”: the “apparent KD of MS2 coat protein” value (input ligand: FMN 200 uM) was 53.1 nM and the “apparent KD of MS2 coat protein” value (input ligand: none) came to 50.9 nM.
On to “CUGAUGUCAGGAUAUCAGAAAAGGCGCAAGGACACGCCAAAUGAGAAGGGACAUGAGGAUCACCCAUGUAAAAC [Orata] (puzzle: Exclusion 4)”, for which the “apparent KD of MS2 coat protein” value under setting [2] is 107 nM, the “apparent KD of MS2 coat protein” value under setting [3] came to 20.8 nM and the “apparent KD of MS2 coat protein” value under setting [4] is 18.1 nM.
On to “CUGAUGUUAGGAUAUCAGGCGCCCGCCACUGGCAAAGCGCAUGAGAAGGGACAUGAGGAUCACCCAUGUAGUAA [Ussoisrebe] (puzzle: Exclusion 4)”, for which, under setting [3], the “apparent KD of MS2 coat protein” value was 27.7 nM.
For “CUGCUCCGUGUAGGAUAUGCAUACAACCAAUAUGCAGAAGGACAUGAGGAUCACCCAUGUAUGUUAUUAUCACGUGAAGCGUCC [Design 20] (Eterna round: R96, puzzle: Exclusion NG 1)”, the “apparent KD of MS2 coat protein” value under setting [1] was 16.8 nM.
For the sequence “CUGCUCCGUGUAGGAUAUGCAUACUCCCAUUAUGCAGAAGGACAUGAGGAUCACCCAUGUAUGUUAUUAUCAUGUGUUGCGUAC [Design 13] (Eterna round: R96, puzzle: Exclusion NG 1)”, the “apparent KD of MS2 coat protein” value (input ligand: FMN 200 uM) came to 250 nM, the “apparent KD of MS2 coat protein” value under setting [1] was 29.5 nM and the “apparent KD of MS2 coat protein” value (input ligand: none) came to 38.5 nM.

For the origin of these results see the supplement of paper PMC9170038.
